Here are results for 2 molecules from paper PMC5454376, “Molecular mechanism of Gαi activation by non-GPCR proteins with a Gα-Binding and Activating motif” (Nature Communications, 2017).

For series [1], the system named is Gαi3-GDP. The series is described as follows: NMR perturbation of Gαi3-GDP backbone amide signals. The format is binding, human. Conditions: 30 °C, pH 7.0, TROSY. As to the method: Full-length human Gαi3 (UNIPROT entry P08754) cloned in a pET24d(+) plasmid (a generous gift from Ichio Shimada, University of Tokyo) was used to purify the protein used in NMR experiments. For this, protein expression was induced in BL21 Rosetta (Life Technologies) cell cultures with 1 mM IPTG for 16 h at 23 °C in a modified M9 minimal medium containing 1 g l^−1 15N-NH4Cl, 2 g l^−1 2H-^13C-glucose and 1 g l^−1 of ^2H-^13C-^15N Celtone base powder in ^2H2O with 30 mg l^−1 kanamycin and 34 mg l^−1 chloramphenicol. The pelleted cells were lysed by sonication in 50 mM Tris, 200 mM NaCl, 100 mM KCl and 1 mM DTT at pH 8.0, and the supernatant was loaded on a Ni^2+-loaded His-Trap FF column. […]
All NMR data were measured on a Bruker Avance III 800 MHz (18.8 T) spectrometer equipped with a cryogenically cooled triple resonance z-gradient probe, processed with Topspin (Bruker) and analysed with Sparky. […] Gαi3 spectra were recorded at 30 °C on ^2H-^13C-^15N–Gαi3 samples with a threefold molar excess of GDP in 10 mM HEPES (pH 7.0) with 10 mM MgCl2, 5 mm DTT, 0.01% NaN3 and 5% ^2H2O. […] The assignment of Gαi3 resonances in the presence of a fivefold molar excess of GIV fragment 1,671–1,696 was achieved from the joint analysis of an HNCO and ^1H–^15N TROSY spectra recorded along a titration (at molar ratios 1:0, 1:0.2,1:0.5, 1:1, 1:2 and 1:5). […]

The nature of series [2]: Circular dichroism and thermal denaturation of GIV-CT. The format is physicochemical. The protocol:
Circular dichroism measurements were performed on a Jasco J-810 spectropolarimeter (JASCO, Tokyo, Japan). The circular dichroism spectrum was recorded on a GIV-CT protein sample 8.4 μM in PBS (pH 7.0) with 0.2 mM DTT in a 0.2 cm path length quartz cuvette at 25 °C. The thermal denaturation curve from 5 to 95 °C was recorded on the same protein sample and cuvette by increasing temperature at a rate of 1 °C min^−1 and measuring the change in ellipticity at 222 nm.

In series [3] the test system is Gpa1(1–41)-human Gαi3 (36–354) in S. cerevisiae. The series is described as follows: G-protein activation in yeast (Fus3 phosphorylation). The series is classed as cell-based. The note with it: strain MMY11, ppFus3 immunoblot. The source says:
G-protein activation assay in yeast
The native G-protein-dependent pheromone response pathway is similarly modified in both strains: the pheromone-activated GPCR (Ste2 or Ste3), endogenous Gα-subunit (Gpa1) and the cell cycle arrest-inducing protein far1 are deleted. In MMY11, the G-protein inhibitor Sst2 is also deleted. Both strains were transformed with a centromeric plasmid (CEN TRP) encoding a chimeric yeast Gpa1(1–41)-human Gαi3 (36–354) protein under the control of the endogenous Gpa1 promoter[68] (courtesy of Mary Cismowski, Nationwide Children's Hospital) using the lithium acetate method. […] Individual colonies were inoculated into 3 ml of SDGalactose-Trp-Ura and incubated overnight at 30 °C to induce the expression of the proteins of interest under the control of the galactose-inducible promoter of pYES2. This starting culture was used to inoculate 20 ml of SDGalactose-Trp-Ura at 0.3 OD600. Exponentially growing cells (∼0.7–0.8 OD600, 4–5 h) were pelleted to prepare samples for immunoblotting (see below). […]
Yeast protein samples for immunoblotting were prepared by acid lysis and precipitation followed by neutralization and solubilization. […] Proteins (∼15–20 μl per lane) were separated by SDS–PAGE, blocked in PBS supplemented with 5% BSA and analysed by sequential incubation with primary and secondary antibodies. […]

B1: GIV-CT: His-tagged human GIV residues 1,660–1,870 (protein)
chain: SETLESRHHKIKTGSPGSEVVTLQQFLEESNKLTSVQIKSSSQENLLDEVMKSLSVSSDFLGKDKPVSCGLARSVSGKTPGDFYDRRTTKPEFLRPGPRKTEDTYFISSAGKPTPGTQGKIKLVKESSLSRQSKDSNPYATLPRASSVISTAEGTTRRTSIHDFLTKDSRLPISVDSPPAAADSNTTAASNVDKVQESRNSKSRSREQQSS
modifications: left off: His tag, N-terminal, kept
For the molecule B1, in series [1], the “fraction of assigned peaks with significant chemical shift perturbations” value is recorded as less than 20%. For the same molecule, the “overall decrease in signal intensity (median)” value in series [1] (twofold molar excess GIV-CT) is given as roughly 3 fold. Besides, the thermal denaturation entry in series [2] (5 to 95 °C, 1 °C min^−1, ellipticity at 222 nm, PBS pH 7.0) was “no cooperative transition”. Besides, the “secondary structure by circular dichroism” value in series [2] ([…] in PBS pH 7.0, 0.2 mM DTT, 25 °C) is “little, if any, secondary structure”.

B2: A2bR: human GPCR A2b receptor expressed in yeast (protein, UniProt P29275 1-332, looked up)
Adenosine receptor A2b: MLLETQDALYVALELVIAALSVAGNVLVCAAVGTANTLQTPTNYFLVSLAAADVAVGLFAIPFAITISLGFCTDFYGCLFLACFVLVLTQSSIFSLLAVAVDRYLAICVPLRYKSLVTGTRARGVIAVLWVLAFGIGLTPFLGWNSKDSATNNCTEPWDGTTNESCCLVKCLFENVVPMSYMVYFNFFGCVLPPLLIMLVIYIKIFLVACRQLQRTELMDHSRTTLQREIHAAKSLAMIVGIFALCWLPVHAVNCVTLFQPAQGKNKPKWAMNMAILLSHANSVVNPIVYAYRNRDFRYTFHKIISRYLLCQADVKSGNGQAGVQPALGVGL
For B2, in series [3], the “activation of Gαi3 WT and Gαi3 N256E” value is recorded as “equally”; the “activation of Gαi3 ΔC9” value was “completely blunted”.
